Measurements as given in patent US20210063414A1, “METHODS FOR PREVENTING AND/OR TREATING BONE LOSS CONDITIONS BY MODULATING IRISIN” (Dana-Farber Cancer Institute, Inc., priority 2018, published 2021).

Biological target: T1, MLO-Y4 cell surface proteins (Mus musculus, UniProt B1AVY7)
T1 construct: endogenous in cells; host or cells: MLO-Y4
T1 sequence (B1AVY7 1-1312): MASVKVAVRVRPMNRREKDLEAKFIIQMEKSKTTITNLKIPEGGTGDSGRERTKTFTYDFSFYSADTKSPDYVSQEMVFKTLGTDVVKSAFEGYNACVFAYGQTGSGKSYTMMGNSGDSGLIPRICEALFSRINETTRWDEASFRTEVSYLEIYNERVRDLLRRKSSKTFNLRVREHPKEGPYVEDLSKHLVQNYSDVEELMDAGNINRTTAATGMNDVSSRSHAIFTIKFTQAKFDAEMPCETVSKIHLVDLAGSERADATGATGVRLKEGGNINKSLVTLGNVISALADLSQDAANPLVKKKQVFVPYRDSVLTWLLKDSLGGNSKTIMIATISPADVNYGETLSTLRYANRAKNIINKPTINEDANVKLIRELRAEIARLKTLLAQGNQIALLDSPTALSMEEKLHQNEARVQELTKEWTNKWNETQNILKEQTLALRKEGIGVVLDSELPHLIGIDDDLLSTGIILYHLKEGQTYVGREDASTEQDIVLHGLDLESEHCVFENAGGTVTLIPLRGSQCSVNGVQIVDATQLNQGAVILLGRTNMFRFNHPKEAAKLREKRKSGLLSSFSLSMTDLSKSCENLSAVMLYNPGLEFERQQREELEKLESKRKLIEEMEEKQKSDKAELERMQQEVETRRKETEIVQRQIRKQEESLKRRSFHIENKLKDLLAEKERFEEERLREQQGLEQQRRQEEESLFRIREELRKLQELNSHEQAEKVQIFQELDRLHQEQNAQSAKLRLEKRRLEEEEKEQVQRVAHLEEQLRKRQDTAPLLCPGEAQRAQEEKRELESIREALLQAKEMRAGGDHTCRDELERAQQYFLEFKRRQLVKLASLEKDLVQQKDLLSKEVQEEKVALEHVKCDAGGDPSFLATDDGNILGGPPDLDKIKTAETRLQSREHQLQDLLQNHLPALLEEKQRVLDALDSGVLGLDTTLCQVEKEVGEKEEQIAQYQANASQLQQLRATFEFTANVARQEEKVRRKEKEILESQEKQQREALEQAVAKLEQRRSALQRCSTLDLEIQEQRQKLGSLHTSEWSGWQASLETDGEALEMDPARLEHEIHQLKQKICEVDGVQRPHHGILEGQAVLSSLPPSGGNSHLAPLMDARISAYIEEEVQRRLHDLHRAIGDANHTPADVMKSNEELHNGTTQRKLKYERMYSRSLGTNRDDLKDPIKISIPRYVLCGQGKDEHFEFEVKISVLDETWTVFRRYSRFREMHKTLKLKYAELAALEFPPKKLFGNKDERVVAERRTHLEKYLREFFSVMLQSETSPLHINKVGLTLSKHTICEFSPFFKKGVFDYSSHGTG
Experiment: Crosslinking/co-immunoprecipitation/mass spectrometry (TMT quantitative proteomics) to identify irisin receptors
Assay type: binding
Details: co-precipitated protein Kif16b (KI16B_MOUSE)
Outline: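 Mouse MLO-Y4 cells were switched to serum-free FreeStyle medium for 4 h, chilled, then exposed to 10 nM His-tagged irisin (or adipsin as control) for 20 min. Cells were crosslinked with 1.5 mM DTSSP (30 min, ice), and bound proteins were pulled down on Ni-NTA and eluted with 250 mM imidazole. Eluates were separated by SDS-PAGE, trypsin-digested in gel, TMT 6-plex labelled and quantified by MS3-based LC-MS/MS on an Orbitrap Fusion Lumos.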

TMT signal-to-noise ratio: 1117.61
Substance: adipsin
